Measured values as given in patent US20190225665A1 (Stanford University, published 2019).
Residue numbers refer to the chain shown, from its start.

B1: IL-10Rβ (monomer) (receptor, human, UniProt Q08334 20-220, looked up)
chain: MVPPPENVRMNSVNFKNILQWESPAFAKGNLTFTAQYLSYRIFQDKCMNTTLTECDFSSLSKYGDHTLRVRAEFADEHSDWVNITFCPVDDTIIGPPGMQVEVLADSLHMRFLAPKIENEYETWTMKNVYNSWTYNVQYWKNGTDEKFQITPQYDFEVLRNLEPWTTYCVQVRGFLPDRNKAGEWSEPVCEQTTHDETVPS
notes: Soluble receptor expressed in Hi5 insect cells; also called IL-10 Receptor Beta; IL-10R2
B2: Synthekine 2 (designed binder)
chain: ARGCHIAQFKSLSPAELQAFKRAKDALEESLLLKDCKCRSRLFPRTWDLRQLQVRERPVALEAELALTLKVLEATADTDPALGDVLDAPLATLHHILSQLRACIQPQPTAGPRTRGRLHRWLHRLQEAPKKESPGCLEASVTFNLFRLLARDLNCVASGDLCEGSGSGLGCDLPQNHGLLSANTLVLLHQMRRISPFLCAKDARDFRFPQEMVKGSQLQKAHVMSVLHEMLQQIFSLFHTERSSAAWNMTLLDQLHTGLHQQLQHLETCLLQVVGEGESAGAISSPALTLRRYFQGIRVYLKEKKYSDCAWEVVRMEIMASLFLSTNMQERLRSKDRDLGSSAAAHHHHHH
B3: wild-type IFN-λ3 (ligand)
chain: PVARLRGALPDARGCHIAQFKSLSPQELQAFKRAKDALEESLLLKDCKCRSRLFPRTWDLRQLQVRERPVALEAELALTLKVLEATADTDPALGDVLDQPLHTLHHILSQLRACIQPQPTAGPRTRGRLHHWLHRLQEAPKKESPGCLEASVTFNLFRLLTRDLNCVASGDLCV
notes: For SPR it was expressed in Hi5 insect cells; also called IL-28B; IFN-λ3 wt
B4: IFN-λ3 H11 (ligand)
chain: B3 chain with Q26R, E84D, H131R, T161A, V174E
notes: also called engineered IFN-λ3 H11

Experiments:
[1] = target: T1, H11/IFN-λR1 binary complex (human, UniProt Q8IU57 21-228, limits assumed); experiment: SPR, equilibrium fit, immobilized binary complexes
T1 construct: Complex of m2 and m3, immobilized for SPR; also called IFN-λ3 H11/IFN-λR1 binary complex; H11-containing binary complex
T1 sequence 1: B3 chain with Q26R, E84D, H131R, T161A, V174E
T1 sequence 2: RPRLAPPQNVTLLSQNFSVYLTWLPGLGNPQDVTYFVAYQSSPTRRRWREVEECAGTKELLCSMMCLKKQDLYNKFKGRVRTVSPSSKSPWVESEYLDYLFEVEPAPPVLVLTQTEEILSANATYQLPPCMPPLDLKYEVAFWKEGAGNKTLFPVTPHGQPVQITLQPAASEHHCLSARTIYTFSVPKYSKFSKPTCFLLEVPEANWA
Procedure: (§1) KD values were determined by fitting to a first order equilibrium binding model.
(§2) Surface plasmon resonance. GE Biacore T100 was used to measure the KD by either kinetic (type I IFNs) or equilibrium (type III IFNs) methods. Approximately 100 RU of each of the receptors of were captured on a Biotin CAP-chip (GE) including a reference channel of an unrelated cytokine receptor (IL-2Rβ).

[2] = target: T1, H11/IFN-λR1 binary complex; experiment: SPR, equilibrium fit, immobilized H11/IFN-λR1 binary complex; SPR; IL-10Rβ over the immobilized H11/IFN-λR1 binary complex
Procedure: as §1, §2

[3] = target: T2, wild-type IFN-λ3/IFN-λR1 binary complex (human, UniProt Q8IU57 21-228, limits assumed); experiment: surface plasmon resonance, equilibrium fit; binary complex on the sensor chip, IL-10Rβ as analyte up to 100 uM
T2 construct: Complex of m1 and m3; In SPR it was the immobilized binary complex; also called IFN-λ/IFN-λR1 binary complex; wild-type IFN-λR1/IFN-λ3
T2 sequence 1: B3 chain
T2 sequence 2: T1 sequence 2
Procedure: as §1, §2

[4] = target: T3, IFNλR1/IFNAR1 receptor dimer (on Hap1 cells) (UniProt Q8IU57 21-520; P17181 28-557, limits assumed); experiment: cell-based or functional assay
T3 sequence (looked up) 1: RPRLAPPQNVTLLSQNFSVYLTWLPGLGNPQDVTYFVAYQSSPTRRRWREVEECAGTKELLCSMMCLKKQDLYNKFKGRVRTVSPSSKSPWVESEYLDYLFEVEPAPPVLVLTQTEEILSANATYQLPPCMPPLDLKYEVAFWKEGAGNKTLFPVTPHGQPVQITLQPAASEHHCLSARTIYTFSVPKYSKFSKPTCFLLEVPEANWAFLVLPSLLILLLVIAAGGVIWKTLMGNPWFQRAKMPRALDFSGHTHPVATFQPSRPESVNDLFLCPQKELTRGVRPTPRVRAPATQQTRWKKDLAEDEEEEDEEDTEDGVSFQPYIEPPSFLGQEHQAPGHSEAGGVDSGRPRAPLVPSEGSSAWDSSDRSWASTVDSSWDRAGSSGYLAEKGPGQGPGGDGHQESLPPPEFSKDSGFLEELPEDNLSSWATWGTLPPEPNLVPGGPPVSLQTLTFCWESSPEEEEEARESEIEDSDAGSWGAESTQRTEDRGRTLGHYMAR
T3 sequence (looked up) 2: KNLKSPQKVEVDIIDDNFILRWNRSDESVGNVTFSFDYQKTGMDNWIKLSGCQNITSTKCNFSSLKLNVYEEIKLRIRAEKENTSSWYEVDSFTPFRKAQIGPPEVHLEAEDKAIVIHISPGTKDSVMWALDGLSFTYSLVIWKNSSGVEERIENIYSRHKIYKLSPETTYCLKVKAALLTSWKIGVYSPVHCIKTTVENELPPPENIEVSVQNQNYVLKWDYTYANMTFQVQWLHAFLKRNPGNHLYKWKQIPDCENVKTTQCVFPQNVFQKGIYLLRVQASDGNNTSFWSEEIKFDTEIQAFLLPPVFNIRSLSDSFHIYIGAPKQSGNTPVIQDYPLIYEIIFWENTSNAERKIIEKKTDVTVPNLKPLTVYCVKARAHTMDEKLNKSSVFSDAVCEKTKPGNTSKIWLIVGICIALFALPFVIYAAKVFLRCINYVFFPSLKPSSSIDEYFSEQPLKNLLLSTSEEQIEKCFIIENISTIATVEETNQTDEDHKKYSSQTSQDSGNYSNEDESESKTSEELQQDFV

[5] = target: T4, IFN-λR1 (human, UniProt Q8IU57 21-228, limits assumed); experiment: SPR, equilibrium fit; wild-type IFN-λ3 binding IFN-λR1
T4 construct: Soluble receptor expressed in Hi5 insect cells; It was captured on a Biotin CAP chip for SPR and used as streptavidin tetramers or soluble protein in the yeast assays; For crystallography it was expressed in HEK293 GnTI- cells and deglycosylated with EndoF and EndoH; also called IL-28RA; IFNλ Receptor 1
T4 sequence (looked up): T1 sequence 2
Procedure: as §1, §2

[6] = target: B1; experiment: flow cytometry of yeast displaying IFN-λ3, no IFN-λR1 present
Procedure: as §1
(§3) We used yeast surface display as a platform for engineering a higher affinity IFN-λ.

[7] = target: T5, IL-10Rβ streptavidin tetramers (human, UniProt Q08334 20-220; P22629 37-163); experiment: as above
T5 construct: Same receptor as m4, multimerised on streptavidin for staining of yeast; also called avidity-enhanced tetrameric form of IL-10Rβ; IL-10Rβ tetramer
Procedure: as §1, §3

[8] = target: T4, IFN-λR1; experiment: yeast surface display titration with IFN-λR1, flow cytometry (FIG. 7B legend gives KD=400 nM)
[9] = target: T4, IFN-λR1; experiment: SPR, equilibrium fit
Procedure: as §1, §2

[10] = target: T6, heterodimeric receptor composed of IL-10Rβ and IFN-λR1 (on cells) (human, UniProt Q8IU57 21-520; Q08334 20-325); experiment: cell-based or functional assay
T6 sequence (looked up) 1: T3 sequence (looked up) 1
T6 sequence (looked up) 2: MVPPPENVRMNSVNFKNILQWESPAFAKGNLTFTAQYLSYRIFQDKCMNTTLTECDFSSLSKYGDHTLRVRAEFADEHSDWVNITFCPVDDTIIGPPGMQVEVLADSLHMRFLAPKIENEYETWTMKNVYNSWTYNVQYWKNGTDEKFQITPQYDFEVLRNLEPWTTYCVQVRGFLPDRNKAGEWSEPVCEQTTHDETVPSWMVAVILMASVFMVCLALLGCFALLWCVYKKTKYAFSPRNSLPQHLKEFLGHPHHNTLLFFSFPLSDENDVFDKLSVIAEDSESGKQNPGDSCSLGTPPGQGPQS

[11] = target: T4, IFN-λR1; experiment: SPR, equilibrium fit; H11 (carries Thr150Ala) binding IFN-λR1
Procedure: as §1, §2

[12] = target: B1; experiment: yeast-surface titration with IL-10Rβ (affinity maturation was done with soluble IFN-λR1 bound to the displayed cytokine); on-yeast titration, H11 displayed on yeast; presence of IFN-λR1 not stated for the titration

T5 sequence (P22629 37-163, one chain of several): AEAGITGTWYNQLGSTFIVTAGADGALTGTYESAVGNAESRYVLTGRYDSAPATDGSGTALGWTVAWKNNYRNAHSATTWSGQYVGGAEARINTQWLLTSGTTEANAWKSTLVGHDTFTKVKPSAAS

B1
fold increase in IL-10Rβ affinity against the wild-type IFN-λ3/IFN-λR1 binary complex [1]: 30 fold | Kd [2]: 560 nM | Kd [3]: 16000 nM

B2
Emax of phospho-STAT1 activation in Hap1 cells [4]: 2 fold of the signal induced by type III IFNs

B3
Kd [5]: 850 nM | binding result [6]: no binding | binding result [7]: no binding | Kd [8]: ~400 nM

B4
fold higher affinity against wild-type IFN-λ3 [9]: ~5 fold | EC50 for phospho-Stat1 on Hap1 cells, fold improvement over wild-type IFN-λ3 [10]: 100 fold | anti-viral potency on Huh7.5 cells infected with HCV, fold over wild-type IFN-λ3 [10]: 12 fold | Kd [11]: 150 nM | Kd [12]: 200 nM
